Tests used:
[1] = molecular target: T1, SPEN RRM 1-4 (Homo sapiens) (UniProt Q96T58); experiment: EMSA; conditions: EMSA: 20 mM Tris-HCl pH 7.5, 150 mM KCl, 5 mM MgCl2, 10% glycerol, room temperature 30 min, 2 nM each labeled RNA (multiplexed), 4.5% TBE native gel
T1 sequence: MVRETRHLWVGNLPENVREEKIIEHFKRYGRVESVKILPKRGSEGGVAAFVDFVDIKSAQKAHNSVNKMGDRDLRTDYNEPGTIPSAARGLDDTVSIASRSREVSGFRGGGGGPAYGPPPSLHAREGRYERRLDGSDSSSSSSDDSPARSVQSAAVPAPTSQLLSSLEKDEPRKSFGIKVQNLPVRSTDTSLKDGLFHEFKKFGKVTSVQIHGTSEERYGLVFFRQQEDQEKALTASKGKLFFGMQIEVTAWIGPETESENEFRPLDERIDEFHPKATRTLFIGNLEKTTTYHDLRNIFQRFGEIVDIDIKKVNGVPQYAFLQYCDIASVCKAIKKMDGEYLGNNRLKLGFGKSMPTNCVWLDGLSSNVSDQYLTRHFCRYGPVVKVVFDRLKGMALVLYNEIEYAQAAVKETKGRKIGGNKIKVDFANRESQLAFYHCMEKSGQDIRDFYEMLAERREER

[2] = molecular target: T2, SPEN RRM 2-4 (Homo sapiens) (UniProt Q96T58); experiment: EMSA; conditions: EMSA: 20 mM Tris-HCl pH 7.5, 150 mM KCl, 5 mM MgCl2, 10% glycerol, room temperature 30 min, 2 nM each labeled RNA (multiplexed), 4.5% TBE native gel
T2 sequence: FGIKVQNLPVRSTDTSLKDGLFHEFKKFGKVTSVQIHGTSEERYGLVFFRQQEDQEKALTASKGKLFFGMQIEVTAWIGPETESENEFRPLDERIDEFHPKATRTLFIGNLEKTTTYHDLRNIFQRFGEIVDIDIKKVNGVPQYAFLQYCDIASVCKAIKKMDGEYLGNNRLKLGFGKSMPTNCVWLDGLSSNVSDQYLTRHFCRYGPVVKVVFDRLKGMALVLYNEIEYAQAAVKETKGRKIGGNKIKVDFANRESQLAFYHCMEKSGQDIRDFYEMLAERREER

[3] = molecular target: T3, SPEN RRM 2-4 mut3 F282A;K311A;Y319A;F321A;K353A (Homo sapiens) (UniProt Q96T58); experiment: EMSA; conditions: EMSA: 20 mM Tris-HCl pH 7.5, 150 mM KCl, 5 mM MgCl2, 10% glycerol, room temperature 30 min, 2 nM each labeled RNA (multiplexed), 4.5% TBE native gel
T3 sequence: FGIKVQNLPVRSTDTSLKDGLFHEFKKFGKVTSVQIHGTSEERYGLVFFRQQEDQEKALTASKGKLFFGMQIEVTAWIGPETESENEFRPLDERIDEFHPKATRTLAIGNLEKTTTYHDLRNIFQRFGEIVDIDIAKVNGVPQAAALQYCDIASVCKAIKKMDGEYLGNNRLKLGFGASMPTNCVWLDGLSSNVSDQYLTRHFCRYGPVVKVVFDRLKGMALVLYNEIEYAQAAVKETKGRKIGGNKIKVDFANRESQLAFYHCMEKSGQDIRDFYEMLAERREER

[4] = molecular target: T4, SPEN RRM 2-4 (Homo sapiens, UniProt Q96T58); experiment: EMSA; Hill 10; EMSA: 20 mM Tris-HCl pH 7.5, 150 mM KCl, 5 mM MgCl2, 10% glycerol, room temperature 30 min, 2 nM each labeled RNA (multiplexed), 4.5% TBE native gel; conditions: protein: recombinant; tags: 6xHis-MBP-TEV at N-terminus, removed by TEV cleavage; label: internal Cy3-, Cy5- or fluorescein-UTP
T4 sequence: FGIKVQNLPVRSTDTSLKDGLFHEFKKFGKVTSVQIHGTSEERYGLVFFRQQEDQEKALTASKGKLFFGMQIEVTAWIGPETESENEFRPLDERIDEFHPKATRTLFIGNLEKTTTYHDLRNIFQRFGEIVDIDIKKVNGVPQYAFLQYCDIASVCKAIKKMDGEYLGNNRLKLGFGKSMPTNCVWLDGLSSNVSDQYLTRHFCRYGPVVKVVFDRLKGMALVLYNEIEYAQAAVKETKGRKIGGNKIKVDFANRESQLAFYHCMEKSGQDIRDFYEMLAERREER

[5] = molecular target: T5, SPEN RRM 2-4 mut3 (Homo sapiens, UniProt Q96T58, F282A;K311A;Y319A;F321A;K353A); experiment: EMSA; Hill 2; text: loss of binding (Kd >1000 nM); EMSA: 20 mM Tris-HCl pH 7.5, 150 mM KCl, 5 mM MgCl2, 10% glycerol, room temperature 30 min, 2 nM each labeled RNA (multiplexed), 4.5% TBE native gel; conditions: protein: recombinant; tags: 6xHis-MBP-TEV at N-terminus, removed by TEV cleavage; label: internal Cy3-, Cy5- or fluorescein-UTP
T5 sequence: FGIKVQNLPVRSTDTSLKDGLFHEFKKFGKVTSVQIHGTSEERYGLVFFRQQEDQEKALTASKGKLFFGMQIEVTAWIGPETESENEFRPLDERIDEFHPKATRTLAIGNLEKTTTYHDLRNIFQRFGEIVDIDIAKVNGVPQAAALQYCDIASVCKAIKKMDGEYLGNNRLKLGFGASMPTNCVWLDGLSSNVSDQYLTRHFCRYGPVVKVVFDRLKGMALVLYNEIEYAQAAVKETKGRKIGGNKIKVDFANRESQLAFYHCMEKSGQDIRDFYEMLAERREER

[6] = molecular target: T6, SPEN RRM 1-4 (Homo sapiens, UniProt Q96T58); experiment: EMSA; Hill 1; EMSA: 20 mM Tris-HCl pH 7.5, 150 mM KCl, 5 mM MgCl2, 10% glycerol, room temperature 30 min, 2 nM each labeled RNA (multiplexed), 4.5% TBE native gel; conditions: protein: recombinant, tags: 6xHis-MBP-TEV at N-terminus, removed by TEV cleavage
T6 sequence: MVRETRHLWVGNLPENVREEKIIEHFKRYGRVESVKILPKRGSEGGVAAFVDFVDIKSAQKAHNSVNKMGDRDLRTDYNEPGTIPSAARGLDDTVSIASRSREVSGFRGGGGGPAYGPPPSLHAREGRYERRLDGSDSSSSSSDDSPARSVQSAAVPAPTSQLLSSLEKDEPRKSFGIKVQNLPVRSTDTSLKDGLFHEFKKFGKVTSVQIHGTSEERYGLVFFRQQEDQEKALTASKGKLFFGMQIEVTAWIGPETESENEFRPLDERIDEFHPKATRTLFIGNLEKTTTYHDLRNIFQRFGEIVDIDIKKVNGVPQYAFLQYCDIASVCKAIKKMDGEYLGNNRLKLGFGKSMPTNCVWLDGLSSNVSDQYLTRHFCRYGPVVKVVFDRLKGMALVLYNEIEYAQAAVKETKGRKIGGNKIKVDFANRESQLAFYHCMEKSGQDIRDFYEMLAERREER

[7] = molecular target: T6, SPEN RRM 1-4; experiment: EMSA; Hill 5; EMSA: 20 mM Tris-HCl pH 7.5, 150 mM KCl, 5 mM MgCl2, 10% glycerol, room temperature 30 min, 2 nM each labeled RNA (multiplexed), 4.5% TBE native gel; conditions: protein: recombinant; tags: 6xHis-MBP-TEV at N-terminus, removed by TEV cleavage; label: internal fluorophore-UTP
[8] = molecular target: T6, SPEN RRM 1-4; experiment: EMSA; Hill 2; EMSA: 20 mM Tris-HCl pH 7.5, 150 mM KCl, 5 mM MgCl2, 10% glycerol, room temperature 30 min, 2 nM each labeled RNA (multiplexed), 4.5% TBE native gel; conditions: protein: recombinant; tags: 6xHis-MBP-TEV at N-terminus, removed by TEV cleavage; label: internal fluorophore-UTP
[9] = label: internal fluorophore-UTP

In the case of “GCGAGGAGCCUUUCAUCCGAAGGCGGGACGAUGCCGGAUAAUCGGCAGCCGAGGAACCGGCAGCCGAGGAUCCGCUCCGGGAACGAGCCUCGUUCCGCGCCCGCCAUGGAACCGGAUGGUCGCGGUGCCUGGGCCCACAGUCGCGCCGCGCUCGACCGCCUGGAGAAGCUGCUGCGCUGCUCGCGUUGUACUAACAUUCUGAGAGAGCCUGUGUGUUUAGGAGGAA [BARD1 mRNA fragment]”, the Kd [1] is reported as 210 nM.

In the case of “GUACCAGGUAUGUGAUGACAUCAGCCGACGCCUGGCACUGCUGCAGGAACAGUGGGCUGGAGGAAAGUUGUCAAUACCUGUAAAGAAGAGAAUGGCUCUACUGGUGCAAGAGCUUUCAAGCCACCGGUGGGACGCAGCAGAUGACAUCCACCGCUCCCUCAUGGUUGACCAUGUGACUGAGGUCAGUCAGUGGAUGGUAGGAGUUAAAAGAUUAAUUGCAGAAAAGAGGAGUCUGUUUUCAGAGGAGGCAGCCAAUGAAGAGAAAUCUGCAGCCACAGCUGAGAAGAACCAUACCAUACCAGGCUUCCAGCAGGCUUCAUAAUCCUCGGUUCCCCAGACUCACCGGACACCAUCUCCU [SRA]”, the Kd [2] is reported as 300 nM, the Kd [1] is reported as 100 nM and the Kd [3] is reported as 950 nM.

For “GGGCUGCGGAUACCUGGUUUUAUUAUUUUUUCUUUGCCCAACGGGGCCGUGGAUACCUGCCUUUUAAUUCUUUUUUAUUCGCCCAUCGGGGCCGCGGAUACCUGCUUUUUAUUUUUUUUUCCUUAGCCCAUCGGGGUAUCGGAUACCUGCUGAUUCCCUUCCCCUCUGAACCCCCAACACUCUGGCCCAUCGGGGUGACGGAUAUCUGCUUUUUAAAAAUUUUCUUUUUUUGGCCCAUCGGGGCUUCGGAUACCUGCUUUUUUUUUUUUUAUUUUUCCUUGCCCAUCGGGGCCUCGGAUACCUGCUUUAAUUUUUGUUUUUCUGGCCCAUCGGGGCCGCGGAUACCUGCUUUGAUUUUUUUUUUUCAUCGCCCAUCGGUGCU [XIST A-full]”, the Kd [2] was 120 nM, the Kd [1] was 100 nM and the Kd [3] was 230 nM.

B1: BARD1 mRNA fragment (structured_RNA)
RNA: GCGAGGAGCCUUUCAUCCGAAGGCGGGACGAUGCCGGAUAAUCGGCAGCCGAGGAACCGGCAGCCGAGGAUCCGCUCCGGGAACGAGCCUCGUUCCGCGCCCGCCAUGGAACCGGAUGGUCGCGGUGCCUGGGCCCACAGUCGCGCCGCGCUCGACCGCCUGGAGAAGCUGCUGCGCUGCUCGCGUUGUACUAACAUUCUGAGAGAGCCUGUGUGUUUAGGAGGAA
With B1 the Kd [4] was 550 ± 30 nM and the Kd [5] was 2300 ± 500 nM.

B2: tRNA-Cys (structured_RNA)
RNA: GGGGGUAUAGCUCAGGGGUAGAGCAUUUGACUGCAAAUCAAGAGGUCCCUGAUUCAAAUCCAGGUGCCCCCUCCAAGCUUG
B2 gave a Kd [6, 9] of 245 ± 78 nM.

B3: XIST A7-8 (dimer) (structured_RNA)
RNA: GUUGCCCAUCGGGGCCUCGGAUACCUGCUUUAAUUUUUGUUUUUCUGGCCCAUCGGGGCCGCGGAUACCUGCUU
Molecule B3 has a Kd [6, 9] of 248 ± 68 nM.

B4: XIST A5-8 (structured_RNA)
RNA: GCCCAUCGGGGUGACGGAUAUCUGCUUUUUAAAAAUUUUCUUUUUUUGGCCCAUCGGGGCUUCGGAUACCUGCUUUUUUUUUUUUUAUUUUUCCUUGCCCAUCGGGGCCUCGGAUACCUGCUUUAAUUUUUGUUUUUCUGGCCCAUCGGGGCCGCGGAUACCUGCUU
For B4, the Kd [7] was 127 ± 4 nM.

B5: XIST A6-9+ (structured_RNA)
RNA: GGCUUCGGAUACCUGCUUUUUUUUUUUUUAUUUUUCCUUGCCCAUCGGGGCCUCGGAUACCUGCUUUAAUUUUUGUUUUUCUGGCCCAUCGGGGCCGCGGAUACCUGCUUUGAUUUUUUUUUUUCAUCGCCCAUCGGUGCUUUUUAUGGAUGAAAAAAUGUUGGUUUUGUGGGUUGUUGCACUCUCUGGAAUAUCUACACUUUUUUUUGCUGCUGAUCAUUUGGUGG
B5 was tested, and the Kd ([6]; label: internal fluorophore-UTP (EMSA)) was 48 ± 5 nM.

B6: XIST A6-8 (trimer) (structured_RNA)
RNA: GGCCCAUCGGGGCUUCGGAUACCUGCUUUUUUUUUUUUUAUUUUUCCUUGCCCAUCGGGGCCUCGGAUACCUGCUUUAAUUUUUGUUUUUCUGGCCCAUCGGGGCCGCGGAUACCUGCUU
In the case of B6, the Kd [6, 9] is reported as 288 ± 39 nM.

B7: XIST A1-4 (structured_RNA)
RNA: GCUGCGGAUACCUGGUUUUAUUAUUUUUUCUUUGCCCAACGGGGCCGUGGAUACCUGCCUUUUAAUUCUUUUUUAUUCGCCCAUCGGGGCCGCGGAUACCUGCUUUUUAUUUUUUUUUCCUUAGCCCAUCGGGGUAUCGGAUACCUGCUGAUUCCCUUCCCCUCUGAACCCCCAACACUCUGGCCCAUCG
B7 showed a Kd [6, 9] of 71 ± 4 nM.

B8: XIST A6-9 (structured_RNA)
RNA: GGCUUCGGAUACCUGCUUUUUUUUUUUUUAUUUUUCCUUGCCCAUCGGGGCCUCGGAUACCUGCUUUAAUUUUUGUUUUUCUGGCCCAUCGGGGCCGCGGAUACCUGCUUUGAUUUUUUUUUUUCAUCGCCCAUCGGUGCU
B8 showed a Kd [8] of 185 ± 9 nM.

B9: XIST A4-6 (structured_RNA)
RNA: GCCGCGGAUACCUGCUUUUUAUUUUUUUUUCCUUAGCCCAUCGGGGUAUCGGAUACCUGCUGAUUCCCUUCCCCUCUGAACCCCCAACACUCUGGCCCAUCGGGGUGACGGAUAUCUGCUUUUUAAAAAUUUUCUUUUUUUGGCCCAUCGGGGCUUCGGAUACCUGCUUUUUUUUUUUUUAUUUUUCCUUGCCCAUCGGGG
With B9 the Kd [8] was 132 ± 10 nM.
